{
  "source": "patent US11542481B2",
  "about": "“Morphinan N-demethylase isolated from the methylobacterium thebainfresser and methods of use thereof” (priority 2017, dated 2023)",
  "key": {"[1]": {"format": "cell-based, E. coli", "settings": "BL21 Star (DE3) cells, toluene treated, 20 μM thebaine, overnight 30° C."}, "[2]": {"test": "MND enzyme temperature optimum assay", "format": "biochemical", "settings": "20 min assays at 20° C.-80° C., pH 8.0, 7.5 μM thebaine", "description": "Enzyme assays with 100 μl purified MND enzyme (˜36 μg), 7.5 μM thebaine, and 30 mM potassium phosphate pH 8.0 in a total assay volume of 200 μl were performed in duplicate and allowed to incubate at the following temperatures for 20 minutes: 20° C., 25° C., 30° C., 40° C., 50° C., 60° C., 70° C. and 80° C. Assays with purified pET28a empty vector control were included at each temperature. Assays were quenched by the addition of 400 μl MeOH followed by rapid mixing for 30 s then subject to centrifugation (16,000×g, 30 min, RT). Samples were diluted further (total of 50 fold dilution) to achieve an analyte concentration of 0.15 μM prior to filtration (low protein binding 0.2 μm, 4 mm, PTFE; Millipore) and introduction into the QTRAP 6500 using Method 1."}, "[3]": {"test": "MND enzyme pH optimum assay", "format": "biochemical", "settings": "20 min", "description": "Enzyme assays with 100 μl purified MND enzyme (˜36 μg), 7.5 μM thebaine, and 60 mM buffer (citrate buffer pH 4 and pH 5, potassium phosphate buffer pH 6.0, pH 7.0, and pH 8.0, and glycine-NaOH buffer pH 9, pH 10, and pH 10.5) in a total assay volume of 200 μl were allowed to incubate at 30° for 20 minutes. Assays with no enzyme and a purified pET28a empty vector control in pH 8.0 were included. The remaining protocol was the same as for the temperature optimum above. A supplemental pH assay was run in the same manner as above to verify the low pH results using a glycine-HCL buffer for pH 2, 3, and 4 and citrate buffer for pH 4, 5, and 6."}, "[4]": {"test": "MND enzyme stability assay", "format": "biochemical", "settings": "pre-incubated at 30° C. in assay buffer pH 7.0 up to 72 hours, then 20 min with thebaine", "description": "100 μl purified MND enzyme (˜36 μg) was incubated in 30 mM potassium phosphate buffer pH 7.0 at 30° C. for 72, 48, 24, 6, 3, and 1 hours prior to addition of 1500 pmol thebaine in a total volume of 200 μl. The assay was allowed to proceed for 20 minutes after substrate addition and was processed and analyzed as in section 23.0."}, "[5]": {"test": "Proteinase K treatment and cofactor addition, conversion of thebaine to northebaine", "format": "biochemical", "settings": "1 hour Proteinase K digestion before 20 min assay, pH 7.0", "description": "The first of two assays performed included adding 1500 pmol FAD to the 200 MND enzyme assay including 100 μl purified MND (˜36 μg) and 1500 pmol thebaine in 30 mM potassium phosphate buffer pH 7.0 with and without a prior 1 hour digest (of MND enzyme) with Proteinase K. Controls included a no enzyme control, FAD addition to a no enzyme control, a pET28a empty vector control, a pET28a empty vector control with FAD, and a pET28a empty vector control digested with Proteinase K followed by FAD addition. Assays were allowed to incubate for 20 minutes and then processed as in section 23.0. A second set of assays was performed, in duplicate, to validate the results found in the previous assay in addition to testing more cofactors. This assay included the following conditions; MND enzyme, MND enzyme pre-digested with Proteinase K for 1 hour, MND enzyme digested with Proteinase K in the presence of 1% SDS and 10 mM EDTA, MND enzyme with 1% SDS and 10 mM EDTA (no Proteinase K pre-digestion), pET28a empty vector, pET28a empty vector pre-digested with Proteinase K for 1 hour, pET28a empty vector digested with Proteinase K in the presence of 1% SDS and 10 mM EDTA, MND enzyme with the addition of 1500 pmol FMN, pET28a empty vector with the addition of 1500 pmol FMN, MND enzyme with the addition of 1500 pmol PLP and pET28a empty vector with the addition of 1500 pmol PLP. Assays were allowed to proceed for 20 minutes prior to processing and quantitation as described in section 23.0."}, "[6]": {"test": "MND solvent stability assays", "format": "biochemical", "settings": "for reduction in activity: pH 7.0, 30° C., 20 min", "description": "FIG. 27. […] Enzyme assays with 5% and 25% of DMSO, methanol, chloroform, tetrahydrofuran, toluene, heptane, and diethyl ether were performed in duplicate and contained 30 mM potassium phosphate buffer pH 7.0, 36 μg purified enzyme, and 1500 pmol of thebaine. Assays were allowed to proceed for 20 min at 30° C. and analyzed by LC-MS/MS using the QTRAP 6500.\nEnzymes used in pharma manufacturing must withstand harsh conditions and tolerate solvents, especially if the substrate is insoluble in water (FIG. 27). MND activity was tested in the following solvents at 5% and 25% concentration: DMSO, methanol, chloroform, tetrahydrofuran, toluene, heptane, and diethyl ether."}},
  "data": [
    {"molecule": "MND enzyme: morphinan N-demethylase identified from the Methylobacterium Thebainfresser, amino acid sequence SEQ ID NO: 2, His-tagged, expressed in E. coli (protein, His tag; Methylobacterium Thebainfresser) MTEKTPKLGSEAANKLGLEADISRRDMVGGVLIGAGAALLASVAPGAINRALAEGPSRLPPVRGSGTGWRGIEIADDWQGPGGIGDYSKSNGNTGKVIRDAHAGIRNHEFEKRLATASDVNEKYDVIIVGAGISGLHSAYDLLRQRPNIKILMLDNHAIFGGEAKQNKMEVDGQALYGGQGPTLYSFVGDDLPSWKGNPALASIMELKTYPKEFGLPTETTWSDKKTDVKVPVDLWFSMASPSQTDIAYRWEGSGLVKNPLLNSFRDAPVSQKSKDAIALMLAVDNGAKRPVEPVGDVSTWVDNMTYAEFLKKVYGADDEAVQLVDQIDVVGTAGLGGDVFNASLAALGLNQYGGIELWNGGLQGLSLPTGNGGVGRSILRKFMPGAIKGGTSLTDTLFGDVNWDVLDHANNNVRIRLNSTVVGVQNNETPTGTKDATVFFLHDNRLYKAKGKAVIMGTPQQVNRNVCLNLPNHLSEAMGDFHHAPILVVNVALRNWKSMEKAGVSGLRWFGEYPGIGQIVRSMVIDGKEIMPCDPSKPAVMTFYIPMNQATRGMPRGEQAMTARHMLFNLTFADIELLIRDQLTRAFGSYGFDAKRDIAAIVANRWGHALVCAGPGFYTGLNGKPPVSKVITAGWDRVAFGHSDLSGRQAWTVAVNYARTAVANVFPKI", "values": [
      {"measurement": "morphinan N-demethylase activity (northebaine production, in words)", "setting": "[1]", "result": "showed morphinan N-demethylase activity"},
      {"measurement": "temperature of highest northebaine accumulation", "setting": "[2]", "result": 60, "unit": "°C"},
      {"measurement": "northebaine production at pH 4 compared with pH 5-10.5", "setting": "[3]; citrate buffer pH 4, 30° C., not observed in glycine-HCL buffer", "result": "nearly twice as much"},
      {"measurement": "difference in northebaine production within the pH range", "setting": "[3]; pH range of 5-10.5, 30° C.", "result": "no significant difference"},
      {"measurement": "ability to demethylate thebaine after pre-incubation (stability)", "setting": "[4]", "result": "maintained its ability to demethylate thebaine"},
      {"measurement": "amount of northebaine produced after Proteinase K treatment of the enzyme", "setting": "[5]", "result": "increased"},
      {"measurement": "activity (in words)", "setting": "[6]; 5% DMSO", "result": "little to no reduction in activity"},
      {"measurement": "activity (in words)", "setting": "[6]; 5% methanol", "result": "little to no reduction in activity"},
      {"measurement": "activity (in words)", "setting": "[6]; 5% toluene", "result": "little to no reduction in activity"},
      {"measurement": "reduction in activity", "setting": "[6]; 25% DMSO", "result": 21, "unit": "%"},
      {"measurement": "activity (in words)", "setting": "[6]; 25% chloroform", "result": "completely abolished"},
      {"measurement": "reduction in activity", "setting": "[6]; 25% methanol", "result": 43, "unit": "%"},
      {"measurement": "activity (in words)", "setting": "[6]; 25% tetrahydrofuran", "result": "completely abolished"},
      {"measurement": "reduction in activity", "setting": "[6]; 25% toluene", "result": 44, "unit": "%"},
      {"measurement": "reduction in activity", "setting": "[6]; diethyl ether (25%)", "result": 66, "unit": "%"},
      {"measurement": "activity (in words)", "setting": "[6]; heptane, outlier, heptane sat on top of the reaction", "result": "no reduction in activity"}
    ]}
  ]
}
